Values quoted from earlier work as cited in paper PMC8179794.
Read-outs that look alike come from different tables or passages of the source. Each block holds one substance with its values, some of them ahead of it.

Tests used:
IL-2Rβ (Homo sapiens) [1] = biological target: IL-2Rβ (Homo sapiens) (UniProt P14784)
IL-2Rα (Homo sapiens) = IL-2Rα (Homo sapiens) (UniProt P01589)
IL-9R (Homo sapiens) = IL-9R (Homo sapiens) (UniProt Q01113)
IL-15Rα (Homo sapiens) = IL-15Rα (Homo sapiens) (UniProt Q13261)
Chain of UniProt Q13261 (Q13261 31-205): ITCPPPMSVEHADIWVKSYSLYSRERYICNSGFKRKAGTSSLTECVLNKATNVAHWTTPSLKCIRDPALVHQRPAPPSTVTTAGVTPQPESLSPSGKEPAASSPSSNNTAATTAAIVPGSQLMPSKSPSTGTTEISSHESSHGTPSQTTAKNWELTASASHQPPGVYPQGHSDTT

IL-2Rβ (Homo sapiens) [2] = biological target: IL-2Rβ (Homo sapiens) (UniProt P14784); remark: listed apart in the source
IL-21R (Homo sapiens) = IL-21R (Homo sapiens) (UniProt Q9HBE5)
Chain of UniProt Q9HBE5 (Q9HBE5 20-232): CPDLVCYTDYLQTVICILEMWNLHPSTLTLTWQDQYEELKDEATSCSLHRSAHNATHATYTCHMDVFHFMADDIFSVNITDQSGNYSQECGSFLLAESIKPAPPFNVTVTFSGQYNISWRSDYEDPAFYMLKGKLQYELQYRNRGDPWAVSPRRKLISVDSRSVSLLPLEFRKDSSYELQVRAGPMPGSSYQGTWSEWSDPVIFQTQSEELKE

Chain of UniProt P14784 (P14784 27-240): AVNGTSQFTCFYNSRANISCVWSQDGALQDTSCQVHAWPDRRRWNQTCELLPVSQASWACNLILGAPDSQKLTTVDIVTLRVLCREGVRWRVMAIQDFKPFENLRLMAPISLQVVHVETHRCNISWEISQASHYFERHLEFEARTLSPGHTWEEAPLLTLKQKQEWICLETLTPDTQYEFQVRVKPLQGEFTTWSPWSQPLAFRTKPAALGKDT
Chain of UniProt P01589 (P01589 22-240): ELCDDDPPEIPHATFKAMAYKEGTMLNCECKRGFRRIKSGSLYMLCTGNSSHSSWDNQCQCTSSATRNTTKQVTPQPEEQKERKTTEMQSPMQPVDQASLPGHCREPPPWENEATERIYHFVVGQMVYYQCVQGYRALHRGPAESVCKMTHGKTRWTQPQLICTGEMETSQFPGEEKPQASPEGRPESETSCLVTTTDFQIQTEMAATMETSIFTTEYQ
Chain of UniProt Q01113 (Q01113 41-270): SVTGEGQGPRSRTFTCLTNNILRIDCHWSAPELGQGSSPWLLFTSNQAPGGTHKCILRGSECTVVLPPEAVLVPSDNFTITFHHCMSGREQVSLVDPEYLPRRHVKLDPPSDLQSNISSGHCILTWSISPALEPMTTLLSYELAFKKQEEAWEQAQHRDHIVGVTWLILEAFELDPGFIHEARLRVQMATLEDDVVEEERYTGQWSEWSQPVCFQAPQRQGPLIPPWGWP

Kd (IL-2Rβ (Homo sapiens) [1]): 144 nM | Kd (IL-2Rα (Homo sapiens)): 10 nM
Substance: IL-2 (from UniProt P60568)

Kd (IL-9R (Homo sapiens)): 0.1 nM
Substance: IL-9 (from UniProt P15248)

Kd (IL-15Rα (Homo sapiens)): 0.065 nM | Kd (IL-2Rβ (Homo sapiens) [2]): 438 nM
Substance: IL-15 (from UniProt P40933)

Kd (IL-21R (Homo sapiens)): 0.07 nM
Substance: IL-21 (from UniProt Q9HBE4)
